Measured values reported in patent US20190169246A1.

Molecular target: ApoER2 of primary neuronal culture from embryonic day 17 mice (mouse) (UniProt Q924X6)
Assay: cell-based or functional assay

Chain of ApoER2 of primary neuronal culture from embryonic day 17 mice (mouse) (Q924X6 29-996): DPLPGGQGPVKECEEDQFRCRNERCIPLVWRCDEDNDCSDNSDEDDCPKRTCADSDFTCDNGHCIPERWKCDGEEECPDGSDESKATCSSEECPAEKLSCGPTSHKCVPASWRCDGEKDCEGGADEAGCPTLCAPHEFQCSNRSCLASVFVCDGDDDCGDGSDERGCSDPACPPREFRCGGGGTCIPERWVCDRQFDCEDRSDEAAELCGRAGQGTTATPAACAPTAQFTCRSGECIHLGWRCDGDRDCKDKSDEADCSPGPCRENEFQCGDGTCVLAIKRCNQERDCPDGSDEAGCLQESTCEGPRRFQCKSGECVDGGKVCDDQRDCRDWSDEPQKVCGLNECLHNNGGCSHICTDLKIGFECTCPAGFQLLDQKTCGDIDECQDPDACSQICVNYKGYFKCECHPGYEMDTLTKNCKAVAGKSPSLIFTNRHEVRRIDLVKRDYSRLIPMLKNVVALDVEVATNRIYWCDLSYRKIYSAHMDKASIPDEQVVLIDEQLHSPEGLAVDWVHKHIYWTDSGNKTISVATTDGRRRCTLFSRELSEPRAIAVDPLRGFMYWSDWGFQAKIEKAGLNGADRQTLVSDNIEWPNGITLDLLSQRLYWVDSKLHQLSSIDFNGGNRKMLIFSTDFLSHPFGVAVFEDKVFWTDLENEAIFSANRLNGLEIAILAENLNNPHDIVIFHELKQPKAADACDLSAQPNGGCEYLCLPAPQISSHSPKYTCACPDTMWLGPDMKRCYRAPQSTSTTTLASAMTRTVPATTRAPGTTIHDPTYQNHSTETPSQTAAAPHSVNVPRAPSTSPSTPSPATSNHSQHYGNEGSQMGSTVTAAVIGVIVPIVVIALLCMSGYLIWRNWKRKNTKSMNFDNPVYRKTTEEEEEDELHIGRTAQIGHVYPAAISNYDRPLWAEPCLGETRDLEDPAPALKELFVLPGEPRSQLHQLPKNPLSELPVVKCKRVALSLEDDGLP

| Substance | levels of phosphorylated ERK to total ERK, primary neurons, 60 minutes (ratio pERK/total ERK) |
| --- | --- |
| Recombinant, human Reelin protein, R3 fragment conjugated to the R6 fragment (Reelin protein fragment R3+R6) (from UniProt P78509 1-2618) (ligand) | 2 |
| mouse Reelin repeats R3 through 6 (from UniProt Q60841 1222-2661) (ligand) | 1.15 |

Second part, the substance after the results:

| levels of phosphorylated ERK to total ERK, primary neurons, 60 minutes (ratio pERK/total ERK) | Substance |
| --- | --- |
| 2.22 | Recombinant, human Reelin protein, R3 fragment conjugated to the R5 fragment (Reelin protein fragment R3+R5) (from UniProt P78509 1-2270) (ligand) |
| 2.5 | full length Reelin consisting of the full length sequence and all of the naturally occurring fragments (ligand) |
| 0.53 | mouse Reelin N terminal through repeat R2 (from UniProt Q60841 27-1221) (ligand) |
